# B1: Insulin-like growth factor 2 mRNA binding protein 2, full-length, Q9Y6M1 1-599 (natural protein)
# chain: MMNKLYIGNLSPAVTADDLRQLFGDRKLPLAGQVLLKSGYAFVDYPDQNWAIRAIETLSGKVELHGKIMEVDYSVSKKLRSRKIQIRNIPPHLQWEVLDGLLAQYGTVENVEQVNTDTETAVVNVTYATREEAKIAMEKLSGHQFENYSFKISYIPDEEVSSPSPPQRAQRGDHSSREQGHAPGGTSQARQIDFPLRILVPTQFVGAIIGKEGLTIKNITKQTQSRVDIHRKENSGAAEKPVTIHATPEGTSEACRMILEIMQKEADETKLAEEIPLKILAHNGLVGRLIGKEGRNLKKIEHETGTKITISSLQDLSIYNPERTITVKGTVEACASAEIEIMKKLREAFENDMLAVNQQANLIPGLNLSALGIFSTGLSVLSPPAGPRGAPPAAPYHPFTTHSGYFSSLYPHHQFGPFPHHHSYPEQEIVNLFIPTQAVGAIIGKKGAHIKQLARFAGASIKIAPAEGPDVSERMVIITGPPEAQFKAQGRIFGKLKEENFFNPKEEVKLEAHIRVPSSTAGRVIGKGGKTVNELQNLTSAEVIVPRDQTPDENEEVIVRIIGHFFASQTAQRKIREIVQQVKQQEQKYPQGVASQRSK
# Molecular target: Insulin-like growth factor 2 mRNA binding protein 2, full-length, Q9Y6M1
# Experiment: mass photometry
# Conditions: remark: other sources report otherwise
binder,measurement,value
B1,percent of the protein in the ˜160kDa species,42%
